Test results published in IntAct's records for PubMed 31515488.

B1: Ras and Rab interactor 1 (Homo sapiens), Q13671 (parent)
chain: MESPGESGAGSPGAPSPSSFTTGHLAREKPAQDPLYDVPNASGGQAGGPQRPGRVVSLRERLLLTRPVWLQLQANAAAALHMLRTEPPGTFLVRKSNTRQCQALCMRLPEASGPSFVSSHYILESPGGVSLEGSELMFPDLVQLICAYCHTRDILLLPLQLPRAIHHAATHKELEAISHLGIEFWSSSLNIKAQRGPAGGPVLPQLKARSPQELDQGTGAALCFFNPLFPGDLGPTKREKFKRSFKVRVSTETSSPLSPPAVPPPPVPVLPGAVPSQTERLPPCQLLRRESSVGYRVPAGSGPSLPPMPSLQEVDCGSPSSSEEEGVPGSRGSPATSPHLGRRRPLLRSMSAAFCSLLAPERQVGRAAAALMQDRHTAAGQLVQDLLTQVRAGPEPQELQGIRQALSRARAMLSAELGPEKLLSPKRLEHVLEKSLHCSVLKPLRPILAARLRRRLAADGSLGRLAEGLRLARAQGPGAFGSHLSLPSPVELEQVRQKLLQLLRTYSPSAQVKRLLQACKLLYMALRTQEGEGAGADEFLPLLSLVLAHCDLPELLLEAEYMSELLEPSLLTGEGGYYLTSLSASLALLSGLGQAHTLPLSPVQELRRSLSLWEQRRLPATHCFQHLLRVAYQDPSSGCTSKTLAVPPEASIATLNQLCATKFRVTQPNTFGLFLYKEQGYHRLPPGALAHRLPTTGYLVYRRAEWPETQGAVTEEEGSGQSEARSRGEEQGCQGDGDAGVKASPRDIREQSETTAEGGQGQAQEGPAQPGEPEAEGSRAAEE
partner: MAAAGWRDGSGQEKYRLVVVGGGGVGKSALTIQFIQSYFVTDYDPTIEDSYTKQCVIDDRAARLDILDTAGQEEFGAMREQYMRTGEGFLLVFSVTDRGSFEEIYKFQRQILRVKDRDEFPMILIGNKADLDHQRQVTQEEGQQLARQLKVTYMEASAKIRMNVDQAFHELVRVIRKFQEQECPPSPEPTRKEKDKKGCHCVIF
B2: Sperm surface protein Sp17 (Homo sapiens), Q15506 (parent)
chain: MSIPFSNTHYRIPQGFGNLLEGLTREILREQPDNIPAFAAAYFESLLEKREKTNFDPAEWGSKVEDRFYNNHAFEEQEPPEKSDPKQEESQISGKEEETSVTILDSSEEDKEKEEVAAVKIQAAFRGHIAREEAKKMKTNSLQNEEKEENK
B3: Cyclin-dependent kinase 4 inhibitor D (Homo sapiens), P55273 (parent)
chain: MLLEEVRAGDRLSGAAARGDVQEVRRLLHRELVHPDALNRFGKTALQVMMFGSTAIALELLKQGASPNVQDTSGTSPVHDAARTGFLDTLKVLVEHGADVNVPDGTGALPIHLAVQEGHTAVVSFLAAESDLHRRDARGLTPLELALQRGAQDLVDILQGHMVAPL
B4: Peroxisomal bifunctional enzyme (Homo sapiens), Q08426 (parent)
chain: MAEYTRLHNALALIRLRNPPVNAISTTLLRDIKEGLQKAVIDHTIKAIVICGAEGKFSAGADIRGFSAPRTFGLTLGHVVDEIQRNEKPVVAAIQGMAFGGGLELALGCHYRIAHAEAQVGLPEVTLGLLPGARGTQLLPRLTGVPAALDLITSGRRILADEALKLGILDKVVNSDPVEEAIRFAQRVSDQPLESRRLCNKPIQSLPNMDSIFSEALLKMRRQHPGCLAQEACVRAVQAAVQYPYEVGIKKEEELFLYLLQSGQARALQYAFFAERKANKWSTPSGASWKTASARPVSSVGVVGLGTMGRGIVISFARARIPVIAVDSDKNQLATANKMITSVLEKEASKMQQSGHPWSGPKPRLTSSVKELGGVDLVIEAVFEEMSLKKQVFAELSAVCKPEAFLCTNTSALDVDEIASSTDRPHLVIGTHFFSPAHVMKLLEVIPSQYSSPTTIATVMNLSKKIKKIGVVVGNCFGFVGNRMLNPYYNQAYFLLEEGSKPEEVDQVLEEFGFKMGPFRVSDLAGLDVGWKSRKGQGLTGPTLLPGTPARKRGNRRYCPIPDVLCELGRFGQKTGKGWYQYDKPLGRIHKPDPWLSKFLSRYRKTHHIEPRTISQDEILERCLYSLINEAFRILGEGIAASPEHIDVVYLHGYGWPRHKGGPMFYASTVGLPTVLEKLQKYYRQNPDIPQLEPSDYLKKLASQGNPPLKEWQSLAGSPSSKL
partner: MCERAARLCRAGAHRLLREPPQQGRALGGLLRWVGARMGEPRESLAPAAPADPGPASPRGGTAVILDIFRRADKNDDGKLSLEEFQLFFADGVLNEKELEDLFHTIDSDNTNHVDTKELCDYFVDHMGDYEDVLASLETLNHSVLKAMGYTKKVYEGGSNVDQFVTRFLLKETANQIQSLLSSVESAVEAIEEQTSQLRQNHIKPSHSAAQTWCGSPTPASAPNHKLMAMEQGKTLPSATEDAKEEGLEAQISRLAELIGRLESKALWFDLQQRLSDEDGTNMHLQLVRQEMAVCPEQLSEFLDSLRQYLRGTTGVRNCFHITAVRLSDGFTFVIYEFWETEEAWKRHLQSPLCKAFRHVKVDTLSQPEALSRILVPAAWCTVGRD
B5: Spindle and kinetochore-associated protein 3 (Homo sapiens), Q8IX90 (parent)
chain: MDPIRSFCGKLRSLASTLDCETARLQRALDGEESDFEDYPMRILYDLHSEVQTLKDDVNILLDKARLENQEGIDFIKATKVLMEKNSMDIMKIREYFQKYGYSPRVKKNSVHEQEAINSDPELSNCENFQKTDVKDDLSDPPVASSCISEKSPRSPQLSDFGLERYIVSQVLPNPPQAVNNYKEEPVIVTPPTKQSLVKVLKTPKCALKMDDFECVTPKLEHFGISEYTMCLNEDYTMGLKNARNNKSEEAIDTESRLNDNVFATPSPIIQQLEKSDAEYTNSPLVPTFCTPGLKIPSTKNSIALVSTNYPLSKTNSSSNDLEVEDRTSLVLNSDTCFENLTDPSSPTISSYENLLRTPTPPEVTKIPEDILQLLSKYNSNLATPIAIKAVPPSKRFLKHGQNIRDVSNKEN
B6: Zinc finger and BTB domain-containing protein 9 (Homo sapiens), Q96C00 (parent)
chain: METPTPLPPVPASPTCNPAPRTIQIEFPQHSSSLLESLNRHRLEGKFCDVSLLVQGRELRAHKAVLAAASPYFHDKLLLGDAPRLTLPSVIEADAFEGLLQLIYSGRLRLPLDALPAHLLVASGLQMWQVVDQCSEILRELETSGGGISARGGNSYHALLSTTSSTGGWCIRSSPFQTPVQSSASTESPASTESPVGGEGSELGEVLQIQVEEEEEEEEDDDDEDQGSATLSQTPQPQRVSGVFPRPHGPHPLPMTATPRKLPEGESAPLELPAPPALPPKIFYIKQEPFEPKEEISGSGTQPGGAKEETKVFSGGDTEGNGELGFLLPSGPGPTSGGGGPSWKPVDLHGNEILSGGGGPGGAGQAVHGPVKLGGTPPADGKRFGCLCGKRFAVKPKRDRHIMLTFSLRPFGCGICNKRFKLKHHLTEHMKTHAGALHACPHCGRRFRVHACFLRHRDLCKGQGWATAHWTYK

Variants of: B1
Conditions: with rras2_human RRAS2, P62070

Variant	effect of a mutation on the interaction
R238Q	with no effect

Variants of: B2
Conditions: with aka7g_human AKAP7, Q9P0M2

Variant	effect of a mutation on the interaction
R126Q	disrupting interaction strength

Variants of: B3
Conditions: with nr4a1_human NR4A1, P22736

Variant	effect of a mutation on the interaction
A121S	with no effect
P142S	disrupting interaction strength

Variants of: B3
Conditions: with cdk4_human CDK4, P11802

Variant	effect of a mutation on the interaction
A121S	with no effect

Variants of: B3
Conditions: with nr4a2_human NR4A2, P43354

Variant	effect of a mutation on the interaction
A121S	with no effect
P142S	with no effect

Variants of: B3
Conditions: with cdk6_human CDK6, Q00534

Variant	effect of a mutation on the interaction
A121S	with no effect
P142S	with no effect
P67L	with no effect
V94M	with no effect

Variants of: B4
Conditions: with neca2_human NECAB2, Q7Z6G3

Variant	effect of a mutation on the interaction
R483Q	disrupting interaction strength
I646T	disrupting interaction strength
S703F	with no effect
L715S	disrupting interaction strength

Variants of: B5
Conditions: with ska1_human SKA1, Q96BD8

Variant	effect of a mutation on the interaction
A28V	with no effect
V187I	with no effect
T254A	with no effect
D335E	with no effect
T348M	with no effect
R396M	with no effect

Variants of: B6
Conditions: with pin4_human PIN4, Q9Y237

Variant	effect of a mutation on the interaction
S173C	with no effect

Variants of: B6
Conditions: with if4e2_human EIF4E2, O60573

Variant	effect of a mutation on the interaction
S173C	with no effect

Variants of: B6
Conditions: with mo4l1_human MORF4L1, Q9UBU8

Variant	effect of a mutation on the interaction
S173C	with no effect
